2 molecules from publication PMC7582164, “The soluble neurexin-1β ectodomain causes calcium influx and augments dendritic outgrowth and synaptic transmission” (Scientific Reports, 2020) can be followed below.

A word on the Kd: it is the constant that tells how readily two partners part at equilibrium.

For test [1], the target named is Recombinant neuroligin-1 (NL-1) (UniProt Q62765). In words: SPR; Biacore 2000; NL-1 immobilised on a CM4 chip by amine coupling (~2800 RU); analyte NX-1β Fc chimera 0.05-0.8 µM or Neurexide 1.25-20 µM; 25 °C; HBS-P (10 mM HEPES pH 7.4, 150 mM NaCl, 0.005% P20) with 3 mM CaCl2; 30 µl/min; 1:1 Langmuir fit. For orientation: SPR reads the build-up and loss of mass on a sensor chip optically.

The target of test [2] is T1, Recombinant neuroligin-1 (NL-1) (UniProt Q62765 46-697).
T1 construct: neuroligin-1, recombinant; source: bought: R&D Systems (cat# 4340-NL)
The description is as above. Particulars: both partners purified.

No end group written: not given here.

T1 sequence (Q62765 46-697): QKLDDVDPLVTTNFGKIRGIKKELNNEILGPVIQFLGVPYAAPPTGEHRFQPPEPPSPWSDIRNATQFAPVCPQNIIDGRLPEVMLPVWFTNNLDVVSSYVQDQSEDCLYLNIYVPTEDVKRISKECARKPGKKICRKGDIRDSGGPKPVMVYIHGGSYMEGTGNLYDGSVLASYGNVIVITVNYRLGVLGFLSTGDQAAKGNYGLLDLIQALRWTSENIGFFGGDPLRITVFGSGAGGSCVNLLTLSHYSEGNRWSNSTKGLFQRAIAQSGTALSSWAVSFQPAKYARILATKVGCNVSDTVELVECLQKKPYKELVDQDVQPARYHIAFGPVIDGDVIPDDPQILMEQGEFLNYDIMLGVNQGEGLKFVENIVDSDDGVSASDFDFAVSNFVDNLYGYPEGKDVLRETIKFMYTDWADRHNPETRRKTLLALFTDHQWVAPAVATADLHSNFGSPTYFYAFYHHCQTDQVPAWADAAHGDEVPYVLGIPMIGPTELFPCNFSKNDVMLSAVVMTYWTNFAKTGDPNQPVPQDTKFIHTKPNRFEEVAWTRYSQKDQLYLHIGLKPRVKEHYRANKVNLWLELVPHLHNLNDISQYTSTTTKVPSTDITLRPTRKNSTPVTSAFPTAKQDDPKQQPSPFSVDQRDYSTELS
Chain of Recombinant neuroligin-1 (NL-1) (UniProt Q62765) (Q62765 46-697): as above

For “Human neurexin-1β Fc-chimera (NX-1β ectodomain lacking splice site 4) (from UniProt P58400 51-396) (Fc fusion)”, the Kd in test [1] worked out at 32 nM.

B1: Neurexide (synthetic 10-mer peptide modeled after the NX-1β binding site for NL-1), tetramer on a lysine backbone (peptide)
peptide: ARPSTRADRA
modifications: also: tetramer coupled to a lysine backbone
notes: The peptide was made as a C-terminally amidated monomer, a dimer and a tetramer; also called Neurexin peptide; source: synthetic peptide
For B1, the Kd in test [2] was determined as 480 nM.
